Results as given in patent US20090004212A1, “Tumour vaccines for MUC1-positive carcinomas” (priority 1997, published 2009).
Where “and” joins values, the source holds several entries; their conditions need not be identical. Equal values may be shown once. Values belong to the molecule of their own block, whether it stands above or below them. No end group written: not given here. O‑glycan = not defined here

Legend:
T2 target cells = assay: CTL activity against peptide-loaded T2 target cells (CFSE/7-AAD); type: cell-based, human; settings: T2 cells loaded with 10 μg/ml peptide, 6-hour incubation
Protocol: (§1) Peripheral blood mononuclear cells (PBMCs) were isolated from buffy coats of HLA-A*0201 healthy donors by Ficoll-Hypaque (MP Biomedicals, Solon, Ohio) density gradient centrifugation.
(§2) Dendritic cells (DCs) were generated by culturing adherent monocytes for 6 days in AIM-V medium (Invitrogen, Carlsbad, Calif.) supplemented with 500 U/mL granulocyte macrophage colonystimulating factor (GM-CSF, R&D, Minneapolis, Minn.) and 1000 U/mL interleukin (IL)-4 (R&D), and then matured for 48 hours with a cocktail of cytokines consisting of 10 ng/mL of each, tumor necrosis factor (TNF)-alpha, IL-6, IL-1beta (R&D), and 1 μg/mL prostaglandine E2 (Sigma, St. Louis, Mo.). […] DCs pulsed with single peptides were combined, washed, resuspended and used as stimulator cells. They were added to the autologous lymphocyte fraction in 24-well Linbro plates (ICN, Aurora, Ohio) at a ratio of 1:10 at culture initiation and fed in RPMI 1640 media supplemented with 10% human AB serum, 10 ng/ml rhIL-6 (R&D) and 5 ng/ml rhIL-12 (PreproTech, Rocky Hill, N.J.). On day 10 and thereafter every 9 days, T cells were restimulated at a ratio of 1 DC to 20 T cells, in RPMI 1640 media supplemented with 10% human AB serum, rhIL-2 and rhIL-7 (20 U/ml each, R&D).
(§3) Antigen Specificity was Assessed after 4 Stimulations. Three Days Past Each stimulation cell supernatant was collected and IFNy secretion was quantified using OptElA human IFNy ELISA kit (BD). CD8+ T-cells were enriched using magnetic microbeads (human CD8+ T Cell Isolation Kit II from Miltenyi Biotech, Auburn, Calif.) according to the manufacture's instructions and analyzed by flow cytometry for intracellular IFN-gamma and TNF-alpha production after a final 5-hour restimulation with peptide-loaded DCs in the presence of monensin (Golgi Stop, BD; 21). CTL activity was determined 3 days after the last restimulation. […] They were washed, labeled with 5- (and 6)-carboxyfluorescein diacetate succinimidyl ester (CFSE) according to the manufacture's instructions (Immunochemistry, Bloomington, Minn.) and added to a 96-well plate in duplicates at 5000 cells/well. CFSE labeled T2 cells not loaded with peptides were used as controls. CD8+ T effector cells were added at various E:T ratios for a 6-hour incubation at 37° C. Target cell death was detected by adding 7-amino-actinomycin (7-AAD, Immunochemistry) to each well 10 min before data analysis by flow cytometry and analysis was performed according to the manufacture's instructions (22).

CD8+ T-cells = assay: IFN-gamma and TNF-alpha production by peptide-primed T-cells; type: cell-based, human; settings: after last cycle of restimulation, 4 weeks of in vitro culture
Protocol: as §1, §2, §3

[1] = target: T1, human 20S immunoproteasomes (Homo sapiens, UniProt P28062+P28065+P40306); assay: In vitro proteolysis of MUC1 repeat peptides and glycopeptides by immunoproteasomes; type: biochemical; settings: for AHG 8 to -11 / PAP8 to -11 / SAP8 to -11: 8- to 11-meric fragments with this N-terminus, % of total 8- to 11-mers; for AVERAGE FRAGMENT LENGTH / NUMBER OF FRAGMENTS: digest by immunoproteasomes; for NUMBER OF FRAGMENTS: HPLC and MALDI-MS; for % of glycopeptide: glycosylated 8- to 11-meric fragments relative to total 8- to 11-mers; for 8-11 mers (%): relative to total amount of digestion products of immunoproteasomal cleavage
T1 construct: purchased Immatics Biotechnologies (Tübingen, Germany)
Protocol: A 1 mg/ml solution of immunoproteasomes prepared according to a published protocol (20) was purchased from Immatics Biotechnologies (Tübingen, Germany) and stored frozen at −80° C.
Glycopeptides were incubated with 10 μg of human 20S immunoproteasomes (Immatics) for […], at 37° C., in 10 μl of digestion buffer (20 mM HEPES/KOH, pH 7.6 containing 2 mM Mg(CH3COO)2 and 1 mM DTT) as described (13). Digestion was stopped after 24 h by freezing the sample at −80° C. Human cathepsin-L was purchased from Sigma (Munich, Germany) and solubilized in 0.1 M sodium acetate, pH 5.5, containing 1 mM EDTA and 1 mM dithiothreitol (12). About 5 mU of enzyme were added to sialoglycopeptide substrates SGGP1 to SGGP5 (75-100 μM) in a total volume of 20 μl. The reaction mixtures were incubated at 37° C. for 24 h and 1 μl of trifluoroacetic acid was added to stop the reaction. The reaction products were cleaned by solid-phase extraction on ZipTipC18 pipette tips and 0.5 μl aliquots were applied onto the MALDI target for mass spectrometric analysis. Kinetic studies with the non-glycosylated 100-mer P1 were performed under the same conditions and the products were chromatographed on HPLC for purification and quantification.

HLA-A0201 = target: T2, HLA-A0201 (Homo sapiens, UniProt P04439, D140Y/D185E/D98H/E176V/E277Q/G131W/G231S/I119V/I121R/I166T/I218V/L300P/L318F/N151K/N90K/P208A/P217A/Q86G/Q94H/R138H/R169H/T345S); assay: MHC stabilization assay on T2 cells; type: binding; settings: for ligation strength (binding to HLA-A0201): T2 cells, 100 μg peptide, 16 h, W6/32 antibody, FACS; for change of ligation strength by introduction of GalNAc: glycosylated versus non-glycosylated form
T2 construct: endogenous in cells; host or cells: T2 cell line (TAP-deficient)
Protocol: MHC stabilization assay is based on the increased affinity of HLA-A, -B, -C specific monoclonal W6/32 antibody for the stabilized conformation of MHC molecules after binding of a peptide ligand. The T2 cells express empty MHC molecules with short half-life.
For MHC stabilization assay T2 cells were grown in IMDM medium supplemented with 2% FCS. T2 cells were washed in PBS from the residual serum, and resuspended at 1×10^6/ml of IMDM supplemented with 0.1% FCS and 25 mM HEPES. Half of a million of cells were incubated in 48-well cell culture plate with 1 μg of […]2-microglobulin and 100 μg of peptide for 16 h at 27° C. and 8% CO2. Cells were washed with 5 ml PBS, centrifuged at 180×g for 5 min and the pellet was resuspended in 10 μl PBS containing 1 μg of W6/32 antibody and incubated at 4° C. for 30 minutes.
Subsequently, cells were washed in PBS with 1% BSA (3×5 ml) and the pellet was resuspended in 50 μl of secondary anti-mouse Alexa 488 antibody (1:1000 in PBS with 0.1% BSA), incubated for 30 minutes in the dark, washed with PBS (3×5 ml) and resuspended in 500 μl of PBS. Binding of the W6/32 antibody to MHC class I molecules was analyzed by FACS on the Beckman Coulter ADCXL4C flow cytometer. As a positive control hepatitis B virus core antigen HBVc18-27 P6Y˜C ([…]) was used. As a negative control T2 cells were used, to which no peptide was added.
Relative binding capacities of the peptides were expressed as the percent of the positive control signal (100%), normalized to the negative control (0%). A mean fluorescence that was at least 10% higher than the negative control level was considered positive binding.

[2] = tested on: DC2.4 mouse dendritic cells; assay: Cellular processing and cross-presentation in mouse dendritic cell line, peptides eluted from exosomal MHC; type: cell-based
Protocol: Poly-lactic acid based vesicles were generated mixing two solutions: Solution A: 200 nmol of P2 peptide (1 mg) resolved in 3% cold water solution of poly-vinyl alcohol; Solution B: 5% poly-lactic acid in a mixture of ethanol and acetone (9:1, v/v). Solution B (30 ml) was slowly added to solution A (150 ml) under constant mixing and stirring overnight at room temperature. The next day the mixture was centrifuged at 10.000×g for 10 min and washed three times with PBS (200 ml), followed by centrifugation steps as mentioned previously. The generated vesicles were resuspended in 330 μl of PBS and added to media of 4×108 DC2.4 mouse dendritic cells growing confluent in nine cell culture flasks (300 cm^2). The cells were grown as usual, but in exosome-depleted medium.
Cells were incubated with PLA-vesicles for 24 h at 37° C. and 5% CO2. The cell culture supernatant was collected and exosomes were isolated by ultracentrifugation (see below). Isolated exosomes were resuspended in 100 μl 0.1% TFA/H2O. Acidification of exosomes denatures tertiary MHC complex and releases bound peptide epitopes. The solution was shortly spun and injected on a HPLC narrow-bore ODS column for separation of eluted peptides and glycopeptides. Fractions were collected manually, dried and analyzed by MALDI-TOF-MS as described. Molecular masses of detected ions were analyzed by the FindPep software and by nanospray ESI-MS/MS analyses.
Exosomes were isolated from FCS or cell culture supernatant by subsequent centrifugation steps: 10 min/1200 g; 30 min/10000×g; 30 min/20.000×g; and 60 min/[…]. The exosomes were pelleted in the final centrifugation step, washed with PBS and used for further analyses. For the depletion of FCS from exosomes, exosomes from serum were pelleted by ultracentrifugation at 110.000×g for 1 h.

Molecule: SAPES(GalNAc)RPAPG [Peptide F3]
lysis of peptide-pulsed T2 target cells by induced CD8+ T cells (T2 target cells): only minimal increased cell lysis above the background lysis
CD8+ cells producing IFN-γ (CD8+ T-cells): 18.1%
TNF-α production by CD8+ cells (CD8+ T-cells): not TNF-α

AHG 8 to -11 [1]: 8%
PAP8 to -11 [1]: 31%
SAP8 to -11 [1]: 61%
AVERAGE FRAGMENT LENGTH [1]: 11.7
NUMBER OF FRAGMENTS [1]: 61
% of glycopeptide [1]: 40% and 39%
8-11 mers (%) [1]: 29%
Molecule: HGVTSAPESRPAPGSTAPPA [GP7]

Molecule: ST(-GalNAc)APPAHGVT ({Ser-T(GalNAc)}-APPAHGVT)
ligation strength (binding to HLA-A0201) (HLA-A0201): strongly reduce binding affinity in comparison with the corresponding nonglycosylated peptide

AHG 8 to -11 [1]: 26%
PAP8 to -11 [1]: 47%
SAP8 to -11 [1]: 27%
AVERAGE FRAGMENT LENGTH [1]: 11.6
NUMBER OF FRAGMENTS [1]: 46
% of glycopeptide [1]: 26%
8-11 mers (%) [1]: 79%
Molecule: AHGVTSAPESRPAPGSTAPPA [GP5] (AHGVT(O‑glycan)SAPESRPAPGSTAPPA; not fully specified; reading uncertain; also: glycan structure not given here; listed as Homo sapiens) [MUC1 glycopeptide, glycosylated threonine within the VTS motif]

Molecule: PESRPAPGST (fragment of MUC1; listed as Homo sapiens)
class I binding activity [2]: considerable class I binding activity

Molecule: STAPPAHGV [STA9]
ligation strength (binding to HLA-A0201) (HLA-A0201): strongest binders
change of ligation strength by introduction of GalNAc (HLA-A0201): reducing it to the level of the negative control

Molecule: SAPESRPAPG (fragment of MUC 1; listed as Homo sapiens)
class I binding activity [2]: considerable class I binding activity

Molecule: S(-GalNAc)APDTRPAPG ({Ser(GalNAc)}-APDTRPAPG)
ligation strength (binding to HLA-A0201) (HLA-A0201): strongly reduce binding affinity in comparison with the corresponding nonglycosylated peptide

Molecule: PESRPAPGS (fragment of MUC1; listed as Homo sapiens)
class I binding activity [2]: considerable class I binding activity

Molecule: STAPPAHGVT [STA10]
class I binding activity [2]: considerable class I binding activity
ligation strength (binding to HLA-A0201) (HLA-A0201): strongest binders
change of ligation strength by introduction of GalNAc (HLA-A0201): reducing it to the level of the negative control

AVERAGE FRAGMENT LENGTH [1]: 11.6
NUMBER OF FRAGMENTS [1]: 31
% of glycopeptide [1]: 0%
8-11 mers (%) [1]: 50%
Molecule: AHGVTSAPESRPAPGSTAPPA [P4] (fragment of digested MUC1; listed as Homo sapiens) [Peptide P4]

AHG 8 to -11 [1]: 55%
PAP8 to -11 [1]: 3%
SAP8 to -11 [1]: 42%
AVERAGE FRAGMENT LENGTH [1]: 10.6
NUMBER OF FRAGMENTS [1]: 46
% of glycopeptide [1]: 98% and 96%
8-11 mers (%) [1]: 35%
Molecule: AHGVTSAPESRPAPGSTAPPA [GP6] (AHGVTSAPES(O‑glycan)RPAPGSTAPPA; reading uncertain; also: glycan structure not given here; listed as Homo sapiens) [MUC1 glycopeptide, glycosylated within the ESR motif]

AVERAGE FRAGMENT LENGTH [1]: 10.5
NUMBER OF FRAGMENTS [1]: 46
% of glycopeptide [1]: 21%
8-11 mers (%) [1]: 35%
Molecule: AHGVTSAPESRPAPGSTAPPA [GP8] (AHGVTS(O‑glycan)APESRPAPGSTAPPA; reading uncertain; also: glycan structure not given here; listed as Homo sapiens) [chemically synthesized MUC1 derived glycopeptide, glycosylation site not readable]

Molecule: APESRPAP (fragment of MUC1; listed as Homo sapiens)
class I binding activity [2]: considerable class I binding activity

Molecule: APESRPAPG (fragment of MUC1; listed as Homo sapiens)
class I binding activity [2]: considerable class I binding activity

Molecule: SAPESRPAPGS (fragment of MUC1; listed as Homo sapiens)
class I binding activity [2]: considerable class I binding activity

Molecule: APESRPAPGS (fragment of MUC1; listed as Homo sapiens)
class I binding activity [2]: considerable class I binding activity

AVERAGE FRAGMENT LENGTH [1]: 17.5
NUMBER OF FRAGMENTS [1]: 105
% of glycopeptide [1]: 0%
8-11 mers (%) [1]: 26%
B1: A(HGVTSAPESRPAPGSTAPPA)x3 (peptide, listed as Homo sapiens)
chain: AHGVTSAPESRPAPGSTAPPAHGVTSAPESRPAPGSTAPPAHGVTSAPESRPAPGSTAPPA
modifications: Fragment of digested MUC1
